According to the nanobody polyreactivity screen of Harvey et al. (2022):

Assay: yeast display, Sf9 membrane polyspecificity reagent, FACS + sequencing; frameworks hold sequencing errors
Outline: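 Nanobodies from a synthetic yeast display library (Saccharomyces cerevisiae BJ5465), induced 36–48 hours with galactose, were stained 1 hour at 4 °C with 10% biotinylated, detergent-solubilized Sf9 membrane reagent, enriched on streptavidin microbeads, then FACS-sorted. Anti-HA (expression) and streptavidin (reagent binding) fluorescence set low and high (top ~1%) gates. Polyreactivity labels come from the gate of origin. Genes were colony-PCR amplified, MiSeq 2 × 250 sequenced and filtered by CDR length.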

| Sequence | polyreactivity (PSR sort gate) |
| --- | --- |
| QVQLVESGGGLVQAGGSLRLSCAASGSTFGVYNMGWYRQAPGQESELVAAITKSGGSTYYADSVMGLFTISRDNAKNTVYLQMNSMNPEDTAVYYCNTDYGRYLYYRFGYLGQGTQVTVSS | low polyreactivity |
| QVQLVESGGGLVQAGGSLRLSCAASGSTIEFNAMGWYRPAPGKERELVAAISGSGASTYYADSVKGRFTISRDNAKNTVYLQMNSLTPEVTAVYYCNADSLYYDYQTVDVQALDYWGQATQVTVSS | low polyreactivity |
| QVQLVESGGGLVQAGGSLRLSCAASGSIFYFNAMGWYRQAPGKERELVADITSGGSTYYADSVKGRFTISRDNAKNTVYLQMNSLKPEDTAVYYCNAALPVTRSERYGSDYWGQGTQVTVSS | low polyreactivity |
| QFQLVESGGGLVQAGGSLRLSCAASGSIFYGYAMGWYRQAPGKERELVAAITSSNGSTYYADSVKGRFTISRDNEKNTVYLQMNSLKPEDTAVYYCAADVHGSYYIKPNVWYDYWGQGTQVTVSS | low polyreactivity |
| QVQLVESGGGLVQAGRSLRLSCAASGRIFSDYAMGWYRQAPGKERELVATITSGDSTNYADSVKGRFTISRDNAKNTVYLQMNSLNPEDTAVYYCNADRFADYDYWGQGTQVTVST | low polyreactivity |
| QVQLVESGGGLVQAGGSLRLSCAASGITFAYNVMGWYRQAPGKERELVAAISWTGSSTYYADSVKGRFTISRDNAKNTVYLQMNSLKQEDTAVYYCAARQRYRYDYWGQGTQVTVSS | high polyreactivity |
| QVQLVESGGGLVQAGGSLRLSCAASGSTFFPNAMGWYRQAPGKERELVAAIRWRGGTYYADSVKGRFTISRDNAKNTVYLQMNSLKQEDTAVYYCATSVKPSYDYWGQGTQVTVSS | low polyreactivity |
| QVQLVESGGGLVQSGGSLRLSCAASGFTFYRYTMGWYRQAPGKERELVAISSDGSTNYADSVKGRFTISRDNAKNTVYLQMNSLKPEDTAVYYCNAVYYNWIGFDYWGQGTQVTVSS | low polyreactivity |
| QVQLVETGGGLVQAGGSLRLSCAASGSISGFIDMGWYRQAPGKERELVAAISYSGGRTYYADSVKGLFTISRDNAKNTVFLQMNSLKPEDTAVYYCAADKFIYSKYTVIRDDYWGQGTQVTVSS | high polyreactivity |
| QVQLVESGGGLVQAGGSLRLSCAASGYTITQNAMGWYRQAPGKERELVASITSGGSTDYADSVKGRFTISRDNAKNTVYLQMNSLKPEDTAVYYCAAGTATDVASIGATKDYDYWGQGTQVTVSS | low polyreactivity |
| QVQLVESGGGLVQAGGSLRLSCAASGRTLYRYAMGWYRQEPGKERELVAAIRSGGRTNYADSVKGRFTISRDNAKNTVYLQMNSLKPEDTAVYYCAARTLRYPSTYDYWGQGTQVTVSS | high polyreactivity |
| QVHLVESGGGLVQAGGSLRLSCAASGSIYVNTMGWYRPAPGKERELVAGISRSTGRTYYADSVKGRFTISRDNAKNTVYLQMNSLKPEDTAVYYCNTVPWRRWGYDYWGQGTQVTVSS | high polyreactivity |
| QVQLVESGGGLVQAGGSLRLSCAASGNIFTNNAMGWYRQAPGKERELVAAISSSGGRTFYADSVKGRFTITRDNAKNTVNLQMNSLKPEDTSVYYCNKVASTRVSYLDMEYWGQGTQVTVSS | high polyreactivity |
| QVQLVESGGGLVQEGGSLRLSCAASGRIIEYNTMGLNRPATGKERELVAAITGGTGSTYYADSVKGRFTISRDNAKNTVYLQMNSLIPVDTSVYYCNADGMILYDYWGQGTQVTVSS | low polyreactivity |
| QVQLVESGGGLVQAGGSLRLSCAASGLTFAYYAMGWYRQAPGKERELVAAISWNGGRTYYADSVKGRFTISRDNAKNSVYLQMNSLKPEDSAVYYCAAQVTSSFYWGQGTQVTVSS | high polyreactivity |
| QVQLVESGGGLVQAGGRLRLSCAASGSIFIGYAMGWYRPAPGKERELVAAISGSGSSTYYADSVKGRFTISRDNAKNTVYLQMNSLKPEDTAVYYCAARTYSRFTASTYYYWGQGTQVTVSS | high polyreactivity |
| QVQLVESGGGLVQAGGSLRLSCAASGFTFRRYAMGWYRQAPGKERELVASIASSTGGSTYADSVKGRFTISRDNAKNTVYLQMNSLKPEDTAVYSCAADWSRFYLGHRTGSGYEYWGQGTQVTVSS | low polyreactivity |
| QVQLVESGGGLVQAGGSLRLSCAASGIIFNSYAMGWYRQAPGKERELVAAITRAGRTYYADSVKGRFPISRDNAKNTVDLQMNSLKPEDTAVYYCAAAFLSRVQGYDSWGQGTQVTVSS | high polyreactivity |
| QVQLVESGGGLVQAGGRLRLSCAASGYIFKSYVMGWYRQAPGKERELVAAITWSGGSTYYADSVKGRFTISRDNAKNTVYLQMNSLKPEDTAVYYCAAYPRRYRTTYDYWGQGTQVTVSS | high polyreactivity |
| QVQHVESGGGLVKAGGSLRLSCAATGSIFSPYAMGWYILAPGKERELVAAISRSGRTHYADSVKGRFTISRDNAKHTVYLQMNSLKADDTAVYFCAAGVVYGYYYWGQGTQVTVSS | high polyreactivity |
| QVQLVESGGGLVQAGGSLRLSCAASGIILGYYAMGWYRQAPGKERELVAAITRSGGRTYYADSVKGRFTISRDNAKNTVYLQMNSLKPEDTGVYYCAADDPYTPQYPDVTYDYWGQGTQVTVSS | high polyreactivity |
| QVQLVESGGGLVQAGGSLRLSCAASGFIIPGYAMGWYRQAPGKERELVAAISSGTSTYYADSVKGRFTISRDNAKNTVYLQMNSLKPEATAVYYCAADTWYRFGYWGQGTQVTVSS | low polyreactivity |

| Sequence | polyreactivity (PSR sort gate) |
| --- | --- |
| QVQLVESVGGLVQAGGSLRLSCAASGRTFRFYTMGWYRQAPGKERELVADISWTSGRTYYADSVKGRFTISRDNAKNTVYLQMKSLKPEDTAVYYCAAYFFSRYSLYDYWGQGTQVTVSS | high polyreactivity |
| QVQLVESGGGLVQAGGSLRLSCAASGLIFYVYAMGWYRQAPGKERELVAAIRGSGARTYYADSVKGRFTISRDNAKNTVYLQMNSLKPEDTAVYYCNARQRYRPSYDYWGQGTQVTVSS | high polyreactivity |
| QVQLVESGGGLVQAGGSLRLSCAASGIIFRYYAMGWYRQAPGKERELVARITSRGGTYYADSVKGRFTISRDNAKNTVYLQMNSLKPEDTAVYDCAASYLLTHGYAYNYWGQGTQVTVSS | high polyreactivity |
| QVQLVESGGGLVQAGGSLRLSCAASGIIFSDYGMGWDRQAPGKERELVAAINSGGRTYSADSVKGRFTISRDNAKNTVYLQMNSLKPEDTAVYYCAADTQGSRYDYWGQGTQVTVSS | high polyreactivity |
| QVQLVESGGGLVQAGGSLRLSCAASGITFISYAMGWYRQAPGKERELVAGITSDDSTSYADSVKGRFTISRDNAKNTVYLQMNSVKPEDTAVYYCAARSYTLRTSTGRLYRYYYWGQGTQVTVSS | high polyreactivity |
| QVQLVESGGGLVQAGGSLRISCAASGGNFRYYTMGWYRQAPGKERELVAAITRGGRTYYADSVKGRFTISRDNAKNTVYIQMNSLKPEDTAVYYCAAVRPRSPVSYENDYWGQGTQVTVSS | high polyreactivity |
| QVQLVESGGGLVQAGGSLRLSCAASGSTFVVNAMGWYRQAPGKERELVAAITQSGGSTFYADSVKGRFTISRDNAKNTVYLQINSLKPEDTAVYYWGQCTQVTVSS | low polyreactivity |
| QVQLVESGGGLVQAGGSLRLSCAASGSTLSTYVMGWYRQAPGKERELVAAITRRGGITYYADSVKGRFTISRDNAKNTVYLQMNSLKPEDTAVYYCNRLRYPHTFQTGGYWGQGTQVTVSS | high polyreactivity |
| QVQLVESGGGLVQAGGSLRLSCAASGSTFNLYAMGWYRQAHGKERELVADITWSGGSTYYADSVKWRFTISRDNAKKTFYLQMNSLKPEDTAVYYCAAYGLSWGGYDYWGQATQVTVSS | low polyreactivity |
| QVQLVESGGGLVQAGGSLRLSCAASGRTSPGYAMGWYRQAPGKEREFVAGISRGGGSTYYADSVKGRFTISRDNAKNTVYLQMNSLKPEDTEVYYCNVRGPGFYWNWGQSHYYGYDYWGQGTQVTVSS | high polyreactivity |
| QVQLEESGGGLVQAGGSLRLSCAASGRIFYLNAMGWYRQAHGKERDLVAAITRSAASTHYADSVKGRFTISRDNAKNTVYLQLNSLKPEDTAVYYCAARFWYDYRHYDYWGQGTQVSVSS | low polyreactivity |
| QVQLVESGGGLVQAGGSLRLSCAASGSIFNVYVMGWYRQAPGKERELVAAITWSGGTTYYADSVKGRFTISRDNAKNTVYLQMNSLKPEDTAVYYCAAEVWYFYDGYDYWGQGTQVTVSS | high polyreactivity |
| QVQLVESGVGLDQAGGSLRLSCAASGSTFFVNAMGWYRQAPGKEMELVAAISTSGGRTYYADSVKGRFRISRDNAKNNLYLQMKSLKPEDTAVYYGAAVSLSGGYGEYDYWGQGTKVTVSS | high polyreactivity |
| QVQLVESGGGLVQAGGSLRLSCAASGRTLLQYTKGWYRQAPGKERELGAAISWSGGRTYYADSVKGRFTISRDNAKNTVYLQMNSLKPEDTAVYYCAARGLKSQYYGAKHEYGYWGLGTQVTVSS | high polyreactivity |
| QVQLVESGGGLVQAGDSLRLICAASGFIFDNYAMGWYRQAPGKERELVAAISQSGTSTYYADSVKVRFTISRDIAKNTVYLQLISLKPEDTAVYYCNVVPTGVHIFDYWGQGTQVTVSS | low polyreactivity |
| QVKLVESGGGLVQAGGSLRLSCAASGRTFVWNAMGWYRQAPGKERELVAAISSSGTSTYYADSVKGRFTISRDNAKNTVYLQMNSQKPEDTAVYYCAKDLLYQPTIRDYWGQGTQVTVSS | low polyreactivity |
| QVQLQESGGGLVQAGGSQRLSCAASGYIFYFQYMGWYRQAPGKELEFVAAISDGANTNYADSVKGRITISRDNAKNTEYLQMNSLKPEDTAVYYCAVYADENDYYIYWGQGTQVTVSS | low polyreactivity |
| QVQLVESGGGLVQAGGSLRLSCAASGFTIYNNVMVWYRQAPGKERELVAAITSSGGRTYYADSVKGRFTISRDIAKNTVYLQMNSLKPEDTAVYYCNALYFRKGGYWGQGTQVTVSS | high polyreactivity |
| QDQLVESGGGLVQAGGSLRFSCAPSGFTFTRNPLGCYRQAPGQEREFVARISSRGGSTYYADSVKGRYTISRDIAKNSVYLQMNSLTPEDTAVNYCARDPVGTNSARYNYWGQGTQVTVSS | high polyreactivity |
| QVQLVESGGGLVQAGGSLRLSCAASGSTFGEYAMGWYRQAPGKERELVAAITFSGGSTYYADSVKGRFTISRDNAKNTVYLQMNSLKPEDTAVYYCNADGVWVYGYRWEWLWYDYWGQGTQVTVSS | low polyreactivity |
| QVQLVESGRGIVQAGGSLRLSCAASGSIFGWYAMGWYRQAPGKERELVASNSVTAGSTYYADSVKWRFTISRDNAKNTVYLLMYSLKPVYTAVYYCASDDDTADAVQLFYYWGQGTHVTVSS | low polyreactivity |
